Measurements taken from patent publication US20060020109A1 (Harvard, published 2006).
Blank lines part the entries; values can stand above or below the molecule they belong to.

Key:
[1] = target: soluble recombinant HLA-DR2 molecules (MHC class II HLA-DR2 protein) (human); assay: competition ELISA on soluble HLA-DR2; competitor biotinylated Cop 1 (1.5 µM)
[2] = target: soluble recombinant HLA-DR2 molecules (MHC class II HLA-DR2 protein) (human); assay: competition ELISA on soluble HLA-DR2; competitor biotinylated MBP 85-99 (0.13 µM)
[3] = target: HLA-DR2 (DRB1*1501) on antigen presenting cells (MGAR, L466) (human); assay: cell-based or functional assay
[4] = target: T1, soluble recombinant HLA-DR2 molecules (MHC class II HLA-DR2 protein) (human); assay: competition ELISA on soluble HLA-DR2; competitor biotinylated Cop 1 (1.5 µM)
T1 construct: Soluble, empty protein from Drosophila S2 cells, captured on plates by antibody LB3.1; also called MHC class II DR2 protein; recombinant HLA-DR2 protein

[5] = target: T1, soluble recombinant HLA-DR2 molecules …; assay: competition ELISA on soluble HLA-DR2; competitor biotinylated MBP 85-99 (0.13 µM)
[6] = target: T2, soluble recombinant HLA-DR2 molecules (MHC class II HLA-DR2 protein) (human); assay: competition ELISA on soluble HLA-DR2; competitor biotinylated Cop 1 (1.5 µM); settings: remark: other sources report otherwise
T2 chain 1: not shown
T2 chain 2: not shown

Molecule: EAKAYEYAKAAAAAA [synthetic peptide #113]
- Inhibition of IL-2 production (%), Hy1B [3]: 30%
- IC50 [4]: < 1 µM
- IC50 [5]: > 1000 µM

Molecule: AEKAYAAAAAAAAAA [synthetic peptide #43]
- Inhibition of IL-2 production (%), Hy1B [3]: 0%
- IC50 [6]: > 1000 µM

Molecule: EAAKYEAYKAAAAAA [synthetic peptide #100]
- Inhibition of IL-2 production (%), Hy1B [3]: 56%
- IC50 [4]: 2 µM
- IC50 [5]: > 150 µM

Molecule: EKAKYEAYKAAAAAA [synthetic peptide #101]
- Inhibition of IL-2 production (%), Hy1B [3]: 53%
- IC50 [4]: < 1 µM
- IC50 [5]: 3 µM

Molecule: EAKAYEAYKAAAAAA [synthetic peptide #95]
- Inhibition of IL-2 production (%), Hy1B [3]: 47%
- IC50 [4]: > 1000 µM
- IC50 [5]: 40 µM

Molecule: AEKAYAAYAAAAAAA [synthetic peptide #52]
- Inhibition of IL-2 production (%), Hy1B [3]: 20%
- IC50 [4]: > 150 µM
- IC50 [5]: 150 µM

Molecule: EAAAYKAYKAAAAAA [synthetic peptide #99]
- Inhibition of IL-2 production (%), Hy1B [3]: 57%
- IC50 [4]: > 150 µM
- IC50 [5]: 5 µM

Molecule: AKEAAAAYAAAAAAA [synthetic peptide #45]
- Inhibition of IL-2 production (%), Hy1B [3]: 0%
- IC50 [4]: > 150 µM
- IC50 [5]: 95 µM

Molecule: KEEYAAAAAAAAAAA [synthetic peptide #42]
- Inhibition of IL-2 production (%), Hy1B [3]: 49%
- IC50 [4]: > 1000 µM

Molecule: EEAAYKAAKAAAAAA [synthetic peptide #111]
- IC50 [4]: < 1 µM
- IC50 [5]: > 1000 µM

Molecule: AKKEYAEYKAAAAAA [synthetic peptide #103]
- Inhibition of IL-2 production (%), Hy1B [3]: 49%
- IC50 [4]: < 1 µM
- IC50 [5]: > 150 µM

Molecule: EEAAYKAAKAAAAAA [synthetic peptide #108]
- IC50 [4]: 2 µM
- IC50 [5]: > 1000 µM

Molecule: AEEAYKAYAAAAAAA [synthetic peptide #53]
- Inhibition of IL-2 production (%), Hy1B [3]: 13%
- IC50 [4]: > 150 µM
- IC50 [5]: 150 µM

Further lines, results first:

- IC50 [1]: 7 µM
- IC50 [2]: 100 µM
Molecule: Cop 1 (Copolymer 1; poly(Y,E,A,K); Copaxone), unlabeled

- Inhibition of IL-2 production (%), Hy1B [3]: 22%
- IC50 [4]: 40 µM
- IC50 [5]: 10 µM
Molecule: AKKAAEAYAAAAAAA [synthetic peptide #50]

- Inhibition of IL-2 production (%), Hy1B [3]: 57%
- IC50 [4]: 2 µM
- IC50 [5]: 20 µM
Molecule: EAKKYEAYKAAAAAA [synthetic peptide #102]

- Inhibition of IL-2 production (%), Hy1B [3]: 53%
- IC50 [4]: 20 µM
- IC50 [5]: > 150 µM
Molecule: AAEKYAEYKAAAAAA [synthetic peptide #104]

- Inhibition of IL-2 production (%), Hy1B [3]: 43%
- IC50 [4]: > 1000 µM
- IC50 [5]: 6 µM
Molecule: EAEAYKAYKAAAAAA [synthetic peptide #96]

- Inhibition of IL-2 production (%), Hy1B [3]: 50%
- IC50 [4]: > 150 µM
- IC50 [5]: 3 µM
Molecule: AAEAYKAYKAAAAAA [synthetic peptide #94]

- Inhibition of IL-2 production (%), Hy1B [3]: 48%
- IC50 [4]: > 150 µM
- IC50 [5]: 8 µM
Molecule: AAKAYEAYKAAAAAA [synthetic peptide #93]

- Inhibition of IL-2 production (%), Hy1B [3]: 39%
- IC50 [4]: 100 µM
- IC50 [5]: > 1000 µM
Molecule: EEKAYAYAKAAAAAA [synthetic peptide #106]

- Inhibition of IL-2 production (%), Hy1B [3]: 18%
- IC50 [4]: > 1000 µM
Molecule: AKAAYEAYAAAAAAA [synthetic peptide #64]

- Inhibition of IL-2 production (%), Hy1B [3]: 32%
- IC50 [4]: 15 µM
- IC50 [5]: > 1000 µM
Molecule: EEAAYAYKKAAAAAA [synthetic peptide #112]

- Inhibition of IL-2 production (%), Hy1B [3]: 64%
- IC50 [4]: 40 µM
- IC50 [5]: < 1 µM
B1: synthetic peptide #107 (peptide)
peptide: ENPVVHYFKNIVTPR
notes: Analog of MBP 85-99 with F to Y at the position of MBP residue 91
